Data on 27 sequences can be found in the nanobody polyreactivity screen of Harvey et al. (2022).

The nature of the data set: yeast display, Sf9 membrane polyspecificity reagent, FACS + sequencing; frameworks hold sequencing errors. In outline:
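After 36–48 hours of galactose induction, yeast (Saccharomyces cerevisiae BJ5465) displaying a synthetic nanobody library were stained at 4 °C for 1 hour with 10% biotinylated, detergent-solubilized Sf9 membrane reagent. Streptavidin microbeads enriched the stained cells before FACS sorting into low and high (top ~1%) gates on anti-HA and streptavidin fluorescence. Each clone's polyreactivity label reflects its gate of origin.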
Regarding “QVQVEESGGGVVQAGGSLRLSCAAYGRIFFRNAMGWYRPAPGKERELVAVINTGGSTNYADSVKGRFTISRDNAKNTVYLQMNRLKAEDTAVYYCAVDRASRRTYNQYGYWGQGTQVSVSS”, the “polyreactivity (PSR sort gate)” value was “high polyreactivity”.

Turning to “QVQVVDSGGGLVQAGGSLSLSCAASGSIFIYYAMGWYRQAPGKERELVAVINDDGSTNYADSVKGRFTISRDNAMNTVYLQMNSLKPEDTAVYYCNTTIGTYYSPSDYWGQGTQVTVSS”, the “polyreactivity (PSR sort gate)” value is on record as “low polyreactivity”. Then “QVQVVESGGGFVQAGGSLRVSCAASGSTFRANAMGCYTQAPGKERELVAAISQSGGITYYADSVKGRFTISRDIAKNTVYLQMNSLKPEDTAVYYCAAKIALDNDYWGQGTQVTVSS”, with “high polyreactivity”; and “QVQVVESGGGLVKAGGSLRISCAASGRSFGANVMGWYRQAPGKEREFVAAISSSGGSTYYADSVKGRFTISRDNAKNTVYLQMNSVKPEDTAVYYCAAGGWPYSGGWFFQPNYDYWGQGTQVTVSS”, with “low polyreactivity”; and “QVQVVESGGGLVQAGASLRLSCAATGSIFVWNDMGGYRQAPGTEREFVAAITSGDGSTYYADSVKGRFTISRDNAKNTGYLQMNSLKPEDTAVYYCAARLRVTGFYSRTRFYWGQGTQVTVSS”, with “low polyreactivity”. On to “QVQVVESGGGLVQAGGSLRLRCAASGRIFAHYAMGWYRQAPGKEREMVAAISSSGTRTYYADSVKGRFTISRDNAKKTVYLQMNSLKPEDTAVYYCAKDSYHTVWGGYWGQGTQVTVSS”, for which the “polyreactivity (PSR sort gate)” value was “high polyreactivity”. Then “QVQVVESGGGLVQAGGSLRLSCAASGFTFYPNAMGWYRQAPGKERELVATITGSGGSTNYADSVKGRFPISRDTAQNTVYLQMNSLKPEDTAVYYCAADYAVYSFTDFNYWGQGTQVTVSS”, with “high polyreactivity”; and “QVQVVESGGGLVQAGGSLRLSCAASGGIFYGYAMGWYRQAPGKERELVAAITSNGGTTYYADSVKGRFTISRDNAKNTVYLQMNSLKPEDTAVYYCDAYFKDSGSYYYWGQGTQVNVSS”, with “low polyreactivity”; and “QVQVVESGGGLVQAGGSLRLSCAASGRIFNYYAMGWYRPAPGKERELVATITGGGRTYYADSVKGRFTISRDNGMKTVYLQMNSLKPEDSAVYYCAAQYGGLSYRYDYWGQGTQVTVSS”, with “high polyreactivity”. Regarding “QVQVVESGGGLVQAGGSLRLSCAASGRTFDVYAMGWYRQAPGKERELVAAITERGSTYYADSVKRRFTISRDNAKNTDYLQMNSLKPVDTAVYDCAARTSGDGCIYYYWGQGTQVTVSS”, the “polyreactivity (PSR sort gate)” value is given as “high polyreactivity”. Next, “QVQVVESGGGLVQAGGSLRLSCAASGRTFNPNVMGWYRQAPGKERELVAAISRGGSTYYADSVKGLFTISRDNAKNTVYLQMNSLKPEDTAVYYCAATHYGHSISNWFDYWGQGTQVTVSS”: “high polyreactivity”; “QVQVVESGGGLVQAGGSLRLSCAASGRTFRDNAMGWYRQAPGNERELVAAISRSGGRTYYADSVKGRCTISRDNAKNTVYLQMNSLKPEDTAVYYCAAYYYTAGDSSARYDYWGQGTQVTVSS”: “high polyreactivity”. Next, “QVQVVESGGGLVQAGGSLRLSCAASGRTFRSYAMVWYRQAPGKERELVASISRGASTNYADSVNGRFTISRDNSKNTVYLQRNSLKPEDTAVYYCAAKYSWGYTYYYWGQGTQVTVSS”: “high polyreactivity”; “QVQVVESGGGLVQAGGSLRLSCAASGSTFSRNAMGWYRQAPGKERELVAAINYSGGITYYADSVKGRFTISRDNAKNTVYLQMNSQKPEDTAVYYCAAVATNVPTHGRPSRRAYDYWGQGTQVTVSS”: “low polyreactivity”.

In the case of “QVQVVESGGGLVQAGGSLRLSCAASGSTFVTYAMGWYRQARVKERELVAGISTGDITNYADSVKVRFTISRDNAKNTVYLQINRLKPEDTAVYYCSADLIQGAAPFRYDYWGQGTQVTVSS”, the “polyreactivity (PSR sort gate)” value was “low polyreactivity”. With “QVQVVESGGGLVQAGGSLRLSCAASGSTFYRYAMGWYRQAPGKERELVAAITRGGGRTYYADSVKGRFTISRDHAKNTVYLQMNSLKPEDSAVYYCNAASPYYDSWGQGTQVTVSS”, the “polyreactivity (PSR sort gate)” value is “high polyreactivity”.

“QVQVVESVGGLVHAGCSLRLSCAASGRTFISNAMGWYRQAPGKERELVATITYSDATTYYADSVKGRFTISRDNAKNTVYLQMNSLKPEDTAVYYCIAQSRSYDRYISAGRRYDYWGQGTQVTVSS”: the “polyreactivity (PSR sort gate)” value is “low polyreactivity”. Then “QVQVVQSGGGLVQAGGSLRLSCAASGSIFVPNSMGWYRPPPGKERELVAAISLSGGSTYYADSVKGRFTISRDYARNTVYLQMTSLKPEDSAVYYCAADIFYYSSSYGYWGLGTQVTVSS”, with “low polyreactivity”; and “QVRLVESCGGLVQAGGSLRLSCAASGITFQYNAMGWYRQAPGKERELVATIRRGGITKYADSVKGRFTISRDNAKNTVYLQMNSLKPEDTAVYYCNADWVWRYSSDFDYWGQGTQVTVSS”, with “low polyreactivity”; and “QVRLVESGGGLVQAGGSLRLSCAASGSTFWSYAMGWYRQAPGKERELVAAISWSGDSTYYADSVKGRFTISRDNAKNTVYLQMNSLKPEDTAVYYCAADYTGSFYTYDYWGQGTQVTVSS”, with “low polyreactivity”. Next, “QVRLVESGGGLVQAGGSLRLSSAASGRIFNGNAMGWYRQAPGKERELVAAINRGGSTNYADSVKGRFTISRDNAKNTVYLQMNSLKPEDTAVYYCAAELLYATRWRRYSGYYDWGQGTQVTVSS”: “high polyreactivity”. Next, “QVWLQESGGGLVQACGSLRLRCAASGTISRDIFMGWYRQAPGKEREFVATIAQGGITNYADSVKGRFTISRDNAKNTVYLQMNSVKPGDTAVYYCAARDGNCYWFYYLGQGTQVTVSS”: “high polyreactivity”. “RFQLVESGGGLVQAGGSLRLSCAASGFTFRDYSMGGYRQAPGKERELVATISWGGASTSYADSVKGRFTISRDNAKNTVYLQMNSLKPEDTAVYYCNVRAQRRHGGYDHWGQGTLVTVSS”: the “polyreactivity (PSR sort gate)” value is “low polyreactivity”. On to “RVQLQESGGGLVQAGGSLRLSCAASGTIFIRGDMGWYRQAPGKEREFVATIDTGSNTYYADSEKGRFTISRDNAKNAVSLQMICLKPGDTAVYYCVVDYQLSGRLRYWGQGTQVTLSS”, for which the “polyreactivity (PSR sort gate)” value is given as “low polyreactivity”. Turning to “RVQLVESGGGLVQAGGSLRLSCAASGFTFRDYAMGWYRQAPGKERELVARIRIRDSNTYYADSVKGRFTISRDNAKNTVYLQMNSLKPEDTAVYYCAVVANYVYSKYDYWGQGTQVTVSS”, the “polyreactivity (PSR sort gate)” value was “low polyreactivity”.

For “VQLVESGGGLVQAGGSLRLSCAASGFTFRWYAMGWYRQAPGKERELVAAISRGGNTNYADSVKGRFTISRDNANNTVYLQMNSLNPDDTAVYYCAAGHGSLRYNYWGQGSQVTVSS”, the “polyreactivity (PSR sort gate)” value is recorded as “high polyreactivity”. Next, “VQLVESGGGLVQAGVSLRLSCAASGSTFRPYAMGWYRQAPGKERELVAAITGSGGSTYYADSVKGRFTISRDNAKNTVYLQMNSLKPEDTAVYYCNAVSTWRYYYWGQGTQVTVSS”: “high polyreactivity”.
